Source: paper PMC12455474, “Single‐Molecule Protein Profiling Using Nanopores and Dimeric Aptamer‐Modified DNA Carriers”

Key:
PDGF-BB = PDGF-BB (human, UniProt P01127 82-190); experiment: single-molecule nanopore (carrier dimerization, biphasic Hill fit); apparent sandwich Kd; 200 pM carrier; Carriers (200 pM total) incubated with protein at 37 °C for 2 h; nanopore measurement in 100 mM KCl, 10 mM Tris-EDTA pH 8.0, -300 mV; details: protein: recombinant; chain copies: 2; 2 identical carriers per protein dimer; first 12 nt pair with carrier overhang
PDGF-BB, sequence (P01127 82-190): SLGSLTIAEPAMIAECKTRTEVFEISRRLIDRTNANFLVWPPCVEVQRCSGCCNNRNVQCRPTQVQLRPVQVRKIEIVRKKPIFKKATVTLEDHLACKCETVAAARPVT

VEGF-165 = VEGF-165 (human, UniProt P15692-4 27-191); experiment: as above; details: protein: recombinant; chain copies: 2; 2 identical carriers per protein dimer; first 12 nt pair with carrier overhang
VEGF-165, sequence (P15692 other isoform, or with tags, fused parts or gaps): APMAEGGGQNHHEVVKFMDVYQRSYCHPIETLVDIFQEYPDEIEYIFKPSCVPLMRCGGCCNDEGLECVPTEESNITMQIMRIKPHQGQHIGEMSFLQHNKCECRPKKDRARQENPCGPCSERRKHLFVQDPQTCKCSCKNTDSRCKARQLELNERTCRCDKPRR

human alpha-thrombin = human alpha-thrombin (human, UniProt P00734;P00734 328-363;364-622); experiment: single-molecule nanopore (carrier dimerization, biphasic Hill fit); apparent sandwich Kd; 100 pM of each carrier; hook effect at high thrombin; Carriers (200 pM total) incubated with protein at 37 °C for 2 h; nanopore measurement in 100 mM KCl, 10 mM Tris-EDTA pH 8.0, -300 mV

B1: PDGF probe carrier (structured_DNA)
DNA: GGGCGGCGACCTTTTTTTCACAGGCTACGGCACGTAGAGCATCACCATGATCCTGTG
modifications: 5' phosphate, ligated to carrier
PDGF-BB
  Kd: ~1.8 pM

## GGGCGGCGACCTTTTTTTTGTGGGGGTGGACGGGCCGGGTAGA (structured_DNA, 5' phosphate, ligated to carrier) [VEGF probe (V7t1) carrier]
VEGF-165
  Kd: ~0.3 pM

B2: HD1 carrier + HD22 carrier (thrombin probes 1 and 2) (structured_DNA)
DNA 1: GGGCGGCGACCTTTTTTTGGTTGGTGTGGTTGG
DNA 2: GGGCGGCGACCTTTTTTTAGTCCGTGGTAGGGCAGGTTGGGGTGACT
modifications: 5' phosphate on probes, ligated to carrier
Human alpha-thrombin
  Kd: ~9.1 pM
